Entries after “also recorded” stand apart in the source; their conditions may differ.
B1: Ala^2 (protein, listed as Ginkgo biloba)
chain: MAGVLFANLPCSLQLSPKVPFRQSTNILIPFHKRSSFGFNAQHCVRSHLRLRWNCVGIHASAAETRPDQLPQEERFVSRLNADYHPAVWKDDFIDSLTSPNSHATSKSSVDETINKRIQTLVKEIQCMFQSMGDGETNPSAYDTAWVARIPSIDGSGAPQFPQTLQWILNNQLPDGSWGEECIFLAYDRVLNTLACLLTLKIWNKGDIQVQKGVEFVRKHMEEMKDEADNHRPSGFEVVFPAMLDEAKSLGLDLPYHLPFISQIHQKRQKKLQKIPLNVLHNHQTALLYSLEGLQDVVDWQEITNLQSRDGSFLSSPASTACVFMHTQNKRCLHFLNFVLSKFGDYVPCHYPLDLFERLWAVDTVERLGIDRYFKKEIKESLDYVYRYWDAERGVGWARCNPIPDVDDTAMGLRILRLHGYNVSSDVLENFRDEKGDFFCFAGQTQIGVTDNLNLYRCSQVCFPGEKIMEEAKTFTTNHLQNALAKNNAFDKWAVKKDLPGEVEYAIKYPWHRSMPRLEARSYIEQFGSNDVWLGKTVYKMLYVSNEKYLELAKLDFNMVQALHQKETQHIVSWWRESGFNDLTFTRQRPVEMYFSVAVSMFEPEFAACRIAYAKTSCLAVILDDLYDTHGSLDDLKLFSEAVRRWDISVLDSVRDNQLKVCFLGLYNTVNGFGKDGLKEQGRDVLGYLRKVWEGLLASYTKEAEWSAAKYVPTFNEYVENAKVSIALATVVLNSIFFTGELLPDYILQQVDLRSKFLHLVSLTGRLINDTKTYQAERNRGELVSSVQCYMRENPECTEEEALSHVYGIIDNALKELNWELANPASNAPLCVRRLLFNTARVMQLFYMYRDGFGISDKEMKDHVSRTLFDPVA
B2: Ser^61: Ginkgo biloba levopimaradiene synthase truncated at Ala^60-Ser^61; amino acid sequence SEQ.ID.NO:35 (protein, listed as Ginkgo biloba)
chain: MSAAETRPDQLPQEERFVSRLNADYHPAVWKDDFIDSLTSPNSHATSKSSVDETINKRIQTLVKEIQCMFQSMGDGETNPSAYDTAWVARIPSIDGSGAPQFPQTLQWILNNQLPDGSWGEECIFLAYDRVLNTLACLLTLKIWNKGDIQVQKGVEFVRKHMEEMKDEADNHRPSGFEVVFPAMLDEAKSLGLDLPYHLPFISQIHQKRQKKLQKIPLNVLHNHQTALLYSLEGLQDVVDWQEITNLQSRDGSFLSSPASTACVFMHTQNKRCLHFLNFVLSKFGDYVPCHYPLDLFERLWAVDTVERLGIDRYFKKEIKESLDYVYRYWDAERGVGWARCNPIPDVDDTAMGLRILRLHGYNVSSDVLENFRDEKGDFFCFAGQTQIGVTDNLNLYRCSQVCFPGEKIMEEAKTFTTNHLQNALAKNNAFDKWAVKKDLPGEVEYAIKYPWHRSMPRLEARSYIEQFGSNDVWLGKTVYKMLYVSNEKYLELAKLDFNMVQALHQKETQHIVSWWRESGFNDLTFTRQRPVEMYFSVAVSMFEPEFAACRIAYAKTSCLAVILDDLYDTHGSLDDLKLFSEAVRRWDISVLDSVRDNQLKVCFLGLYNTVNGFGKDGLKEQGRDVLGYLRKVWEGLLASYTKEAEWSAAKYVPTFNEYVENAKVSIALATVVLNSIFFTGELLPDYILQQVDLRSKFLHLVSLTGRLINDTKTYQAERNRGELVSSVQCYMRENPECTEEEALSHVYGIIDNALKELNWELANPASNAPLCVRRLLFNTARVMQLFYMYRDGFGISDKEMKDHVSRTLFDPVA

Assay: in vitro enzymatic assay of levopimaradiene synthase constructs expressed in E. coli BL21(DE3)
Format: biochemical, Escherichia coli
Conditions: for diterpene product on bacterial expression: E. coli BL21(DE3), soluble lysate fraction, 20 μM GGDP, overnight at 32° C., GC and GC/MS
Description: The desired plasmids were prepared by ligating the mutated gene insert into the similarly digested vectors pET32c(+) (Novagen; Madison, Wis.) and pRS426GAL (Hua, 2000), a multiple copy yeast expression vector. These plasmids was expressed in E. coli BL21(DE3) (Novagen; Madison, Wis.). E. coli cells were grown in Luria-Bertani medium supplemented with 100 μg/mL ampicillin at 37° C. with shaking to OD600 ˜0.6. The following parameters were tested: isopropyl 1-thio-β-D-galactopyranoside (IPTG) concentration (50, 100, 250, 500, and 1000 μM); and temperature and time (20° C. for 2, 3, 4, 6, 21 hours, 22° C. for 6, 8, 16, 19, 22, 45 hours, and 30° C. for 3, 6 hours). The following assay conditions were tested to obtain maximum diterpene product yield: 30 mM HEPES (N-2-hydroxyethylpiperazine-N′-[…]), pH 6.9, 7.2, 7.6, 8.0; 30 mM Tris (tris(hydroxymethyl)aminomethane hydrochloride), pH 7.4, 7.8, 8.2; 1, 5, 10% glycerol; 1, 3, 5, 10, 20 mM DTT (dithiothreitol); 20 mM β-mercaptoethanol; 2, 5, 8% Triton X-100; 5% Tween 80; 0, 2, 7.5, 20, 50 mM MgCl2; 0, 30, 500, 1000 μM MnCl2; 2, 10, 13.3, 20, 40, 80, 200 μM GGDP; and 23° C. and 32° C. assay temperatures.
Optimal soluble protein production and diterpene yield were obtained with the following conditions. Cell cultures were induced with 1 mM IPTG at 20° C. with shaking for 6 hours and lysed by sonication in 30 mM HEPES, pH 7.2, 5 mM DTT, and 5% glycerol. The soluble fraction of the lysate (100 mg/mL) was incubated with 20 μM GGDP in 30 mM HEPES, pH 7.2, 5 mM DTT, 5% glycerol, 2 mM MgCl2, and 500 μM MnCl2 overnight at 32° C.
All in vitro reactions were extracted 3× with hexane and dried over MgSO4. The reaction was further extracted twice with diethyl ether and dried over MgSO4. Thereafter, the crude lysate was suspended in 100 mM Tris, pH 8.0 containing 2.9 units/mg apyrase (a dephosphorylating agent) and 10 units/μL calf intestinal alkaline phosphatase, incubated at 30° C. for 3 hours, and extracted with diethyl ether as noted above (Croteau and Cane, 1985). The crude reaction mixtures were eluted over SiO2, concentrated, and analyzed by GC and GC/MS.
Gas chromatography spectra were obtained on a Hewlett Packard 6890 Series GC System equipped with an Rtx-5 capillary column (Restek, 30 m×0.25 mm i.d., 0.10 μm df). The following separation conditions and temperature program were employed: injector port 250° C., FID 250° C., split ratio 39:1, helium flow 20 cm/s (0.6 mL/min), 150° C. hold 5 min, increase to 250° C. (5° C./min), hold 5 min. GC/MS spectra were obtained on a Hewlett-Packard 5890A instrument with a 30-m DB-5 ms column (J&W Scientific Inc., 0.25 mm i.d., 0.10 μm df). The following separation conditions and temperature program were employed: injector port 280° C., transfer lines: 280° C., helium flow at 30 cm/s (1 mL/min) with splitless injection at 150° C. hold 3 min, increase to 250° C. (5° C./min), hold 5 min. Mass spectra (m/z 50 to 500) were obtained on a VG ZAB-HF reverse-geometry double-focusing instrument at 70 eV with an electron-impact ion source (200° C.). Accelerating voltage was set to 8 kV and the resolution was 1000 (10% valley).
The skilled artisan recognizes that lysis and assay conditions should be optimized. Examples of parameters that can be adjusted to optimize conditions include altering buffer, pH, reductant, reductant concentration, metal cofactors, cofactor concentrations, glycerol concentrations, substrate concentrations, and assay temperatures. […] Maximum soluble protein production and diterpene yield were obtained with the following conditions. Cell cultures were induced with 1 mM IPTG at 20° C. with shaking for 6 hours and lysed by sonication in 30 mM HEPES, pH 7.2, 5 mM DTT, and 5% glycerol. The soluble fraction of the lysate (100 mg/1 mL) was incubated with 20 μM GGDP in 30 mM HEPES, pH 7.2, 5 mM DTT, 5% glycerol, 2 mM MgCl2, and 500 μM MnCl2 overnight at 32° C. […]

| Molecule | diterpene product on bacterial expression | diterpene product on bacterial expression (listed as full-length cDNA) | difference in activity between highest (Ser^61) and lowest (Ala^2) levels (bacterial expression) | turnover of GGDP (bacterial expression, highest expression levels) |
| --- | --- | --- | --- | --- |
| B1 | produced levopimaradiene as the exclusive diterpene hydrocarbon | provided enzymatic activity capable of cyclizing geranylgeranyl diphosphate to levopimaradiene | approximately 80% |  |
| B2 | produced levopimaradiene as the exclusive diterpene hydrocarbon; also recorded: provided enzymatic activity capable of cyclizing geranylgeranyl diphosphate to levopimaradiene |  |  | approximately 1% |
